Experimental data reported in publication PMC10746679, “Mutations F352A and Y528A in human HSP90α reduce fibronectin association and fibrillogenesis in cell-derived matrices” (Cell Stress & Chaperones, 2023).

target: Full-length fibronectin (UniProt P02751 32-2477); assay: ELISA; solid-phase binding assay; FN-FL or FN70 coated on high-binding plates (25 μg/ml by the legend), blocked with 3% BSA in Buffer A; wild type or mutant His-HSP90α at varying concentrations added overnight at 4 °C; detected with anti-HSP90α antibody, HRP secondary, absorbance 450 nm; conditions: both partners purified
Sequence (P02751 other isoform, or with tags, fused parts or gaps, chain 1 of 2): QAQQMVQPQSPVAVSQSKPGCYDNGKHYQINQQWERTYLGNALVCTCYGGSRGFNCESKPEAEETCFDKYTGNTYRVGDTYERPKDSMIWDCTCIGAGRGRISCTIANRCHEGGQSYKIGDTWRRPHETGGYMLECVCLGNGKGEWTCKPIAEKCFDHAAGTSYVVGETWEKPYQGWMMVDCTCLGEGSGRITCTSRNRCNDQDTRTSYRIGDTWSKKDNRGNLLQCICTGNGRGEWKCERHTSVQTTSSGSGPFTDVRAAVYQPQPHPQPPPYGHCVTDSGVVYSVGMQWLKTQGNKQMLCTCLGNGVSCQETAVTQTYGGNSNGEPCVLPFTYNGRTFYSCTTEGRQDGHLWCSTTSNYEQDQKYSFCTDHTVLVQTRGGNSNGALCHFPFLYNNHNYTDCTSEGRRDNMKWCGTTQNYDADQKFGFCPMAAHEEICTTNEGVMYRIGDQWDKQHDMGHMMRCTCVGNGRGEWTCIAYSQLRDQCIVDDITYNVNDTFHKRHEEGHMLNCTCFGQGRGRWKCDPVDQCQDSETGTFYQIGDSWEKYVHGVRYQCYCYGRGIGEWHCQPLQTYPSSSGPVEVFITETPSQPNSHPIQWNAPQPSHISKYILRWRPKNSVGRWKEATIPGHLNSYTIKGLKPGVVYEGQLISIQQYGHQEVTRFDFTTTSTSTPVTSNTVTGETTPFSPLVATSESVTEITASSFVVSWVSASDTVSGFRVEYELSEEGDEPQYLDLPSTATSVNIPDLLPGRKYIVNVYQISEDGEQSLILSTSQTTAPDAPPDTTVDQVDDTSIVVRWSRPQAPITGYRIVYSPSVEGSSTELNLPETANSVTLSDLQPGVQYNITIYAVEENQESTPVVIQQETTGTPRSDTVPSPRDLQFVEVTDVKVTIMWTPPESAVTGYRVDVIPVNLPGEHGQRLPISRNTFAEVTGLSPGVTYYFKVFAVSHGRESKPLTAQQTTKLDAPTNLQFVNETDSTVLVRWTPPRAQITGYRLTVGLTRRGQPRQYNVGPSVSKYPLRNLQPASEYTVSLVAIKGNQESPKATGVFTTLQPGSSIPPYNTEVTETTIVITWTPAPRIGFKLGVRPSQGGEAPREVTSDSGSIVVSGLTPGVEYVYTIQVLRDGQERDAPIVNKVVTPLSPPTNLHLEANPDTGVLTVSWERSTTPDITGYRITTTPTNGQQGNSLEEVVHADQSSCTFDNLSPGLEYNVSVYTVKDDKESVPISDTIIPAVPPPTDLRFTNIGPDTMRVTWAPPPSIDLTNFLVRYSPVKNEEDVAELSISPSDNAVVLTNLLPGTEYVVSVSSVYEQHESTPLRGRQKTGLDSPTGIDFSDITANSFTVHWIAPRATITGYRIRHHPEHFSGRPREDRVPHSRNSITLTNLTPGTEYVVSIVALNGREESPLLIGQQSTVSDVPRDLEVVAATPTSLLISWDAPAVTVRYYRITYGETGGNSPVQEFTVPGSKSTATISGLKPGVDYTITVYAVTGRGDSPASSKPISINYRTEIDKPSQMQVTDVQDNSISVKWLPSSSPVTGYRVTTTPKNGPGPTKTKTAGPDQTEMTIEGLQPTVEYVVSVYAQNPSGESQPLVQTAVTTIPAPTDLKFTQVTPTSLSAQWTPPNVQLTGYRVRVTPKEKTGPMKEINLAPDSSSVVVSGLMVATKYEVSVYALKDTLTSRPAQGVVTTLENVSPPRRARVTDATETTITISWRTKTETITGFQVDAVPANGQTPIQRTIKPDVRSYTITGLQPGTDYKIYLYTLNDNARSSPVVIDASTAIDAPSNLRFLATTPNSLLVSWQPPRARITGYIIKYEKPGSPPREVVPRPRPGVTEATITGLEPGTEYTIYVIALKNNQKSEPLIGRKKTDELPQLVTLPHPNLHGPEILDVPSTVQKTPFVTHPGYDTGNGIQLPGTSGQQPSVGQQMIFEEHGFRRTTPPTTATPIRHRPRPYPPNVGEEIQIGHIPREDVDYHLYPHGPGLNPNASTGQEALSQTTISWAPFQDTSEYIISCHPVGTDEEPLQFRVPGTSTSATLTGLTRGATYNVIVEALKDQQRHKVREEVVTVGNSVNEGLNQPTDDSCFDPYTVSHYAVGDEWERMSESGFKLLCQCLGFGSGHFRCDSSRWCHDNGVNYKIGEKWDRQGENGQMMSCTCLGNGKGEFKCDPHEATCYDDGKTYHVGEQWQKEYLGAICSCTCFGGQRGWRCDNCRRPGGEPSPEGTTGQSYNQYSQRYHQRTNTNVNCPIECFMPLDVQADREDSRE
Sequence (P02751 other isoform, or with tags, fused parts or gaps, chain 2 of 2): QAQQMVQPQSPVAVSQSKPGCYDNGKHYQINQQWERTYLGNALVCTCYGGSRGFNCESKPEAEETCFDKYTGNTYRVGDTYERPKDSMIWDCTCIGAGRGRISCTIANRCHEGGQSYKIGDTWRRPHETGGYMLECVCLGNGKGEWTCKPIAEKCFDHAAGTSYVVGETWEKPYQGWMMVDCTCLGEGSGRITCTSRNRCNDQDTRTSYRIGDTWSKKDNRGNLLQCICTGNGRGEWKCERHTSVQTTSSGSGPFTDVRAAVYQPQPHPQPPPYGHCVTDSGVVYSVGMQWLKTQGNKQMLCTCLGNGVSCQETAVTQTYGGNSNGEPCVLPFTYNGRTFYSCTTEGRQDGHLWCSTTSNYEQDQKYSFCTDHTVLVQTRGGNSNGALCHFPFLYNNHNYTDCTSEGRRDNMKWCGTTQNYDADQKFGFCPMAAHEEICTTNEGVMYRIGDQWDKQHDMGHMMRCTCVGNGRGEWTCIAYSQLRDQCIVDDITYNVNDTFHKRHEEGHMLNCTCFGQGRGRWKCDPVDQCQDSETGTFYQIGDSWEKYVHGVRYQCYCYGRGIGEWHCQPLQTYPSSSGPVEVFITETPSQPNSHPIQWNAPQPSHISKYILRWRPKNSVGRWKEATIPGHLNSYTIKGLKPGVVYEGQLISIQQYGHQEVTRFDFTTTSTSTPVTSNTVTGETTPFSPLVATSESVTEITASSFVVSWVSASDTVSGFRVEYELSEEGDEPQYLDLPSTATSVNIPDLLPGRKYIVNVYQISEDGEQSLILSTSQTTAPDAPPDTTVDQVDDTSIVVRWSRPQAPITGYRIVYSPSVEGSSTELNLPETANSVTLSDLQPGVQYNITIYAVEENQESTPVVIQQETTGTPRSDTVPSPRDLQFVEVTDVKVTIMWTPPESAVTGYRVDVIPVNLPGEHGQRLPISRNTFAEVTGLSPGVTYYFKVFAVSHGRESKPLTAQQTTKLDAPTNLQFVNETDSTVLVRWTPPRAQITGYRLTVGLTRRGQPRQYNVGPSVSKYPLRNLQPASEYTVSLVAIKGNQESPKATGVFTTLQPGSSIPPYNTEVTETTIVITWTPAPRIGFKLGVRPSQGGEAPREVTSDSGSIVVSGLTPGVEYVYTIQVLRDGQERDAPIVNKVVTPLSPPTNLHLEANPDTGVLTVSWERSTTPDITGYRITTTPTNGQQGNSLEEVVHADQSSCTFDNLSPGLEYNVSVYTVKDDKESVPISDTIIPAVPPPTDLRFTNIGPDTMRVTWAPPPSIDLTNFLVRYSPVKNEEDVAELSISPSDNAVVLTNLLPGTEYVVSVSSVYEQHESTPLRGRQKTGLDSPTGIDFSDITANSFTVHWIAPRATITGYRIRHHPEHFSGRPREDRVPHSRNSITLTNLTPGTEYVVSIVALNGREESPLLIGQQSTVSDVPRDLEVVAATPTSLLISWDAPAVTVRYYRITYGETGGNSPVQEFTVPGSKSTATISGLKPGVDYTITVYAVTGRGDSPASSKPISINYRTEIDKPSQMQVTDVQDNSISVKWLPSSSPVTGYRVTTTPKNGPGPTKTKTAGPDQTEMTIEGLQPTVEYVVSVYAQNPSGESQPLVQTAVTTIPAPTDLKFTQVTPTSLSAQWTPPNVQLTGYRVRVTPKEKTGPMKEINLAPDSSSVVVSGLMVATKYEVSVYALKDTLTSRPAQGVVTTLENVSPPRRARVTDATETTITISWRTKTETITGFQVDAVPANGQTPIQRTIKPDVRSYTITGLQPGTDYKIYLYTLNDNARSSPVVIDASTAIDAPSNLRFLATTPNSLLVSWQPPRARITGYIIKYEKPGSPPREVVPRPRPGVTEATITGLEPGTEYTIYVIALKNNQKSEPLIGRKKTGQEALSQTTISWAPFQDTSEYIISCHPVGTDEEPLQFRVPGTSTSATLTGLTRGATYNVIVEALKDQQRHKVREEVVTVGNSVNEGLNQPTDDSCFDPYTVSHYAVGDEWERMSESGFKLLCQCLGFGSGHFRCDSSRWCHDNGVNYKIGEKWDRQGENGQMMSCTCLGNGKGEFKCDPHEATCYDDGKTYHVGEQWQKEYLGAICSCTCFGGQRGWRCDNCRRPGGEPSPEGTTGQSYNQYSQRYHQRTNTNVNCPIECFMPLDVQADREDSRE

Binder | percent reduction in binding against wild type His-HSP90α [%]
His-HSP90α-H450A (natural protein, Heat shock protein HSP 90-alpha, human, point mutant of the full-length His-HSP90α) not shown | ~25
His-HSP90α-E353A (natural protein, Heat shock protein HSP 90-alpha, human, point mutant of the full-length His-HSP90α) not shown | ~25
His-HSP90α-F352A (natural protein, Heat shock protein HSP 90-alpha, human, point mutant of the full-length His-HSP90α) not shown | ~40

Other lines, results leading:

percent reduction in binding against wild type His-HSP90α [%] | Binder
~25 | His-HSP90α-Y528A (natural protein, Heat shock protein HSP 90-alpha, human, point mutant of the full-length His-HSP90α) not shown
~25 | His-HSP90α-R620A (natural protein, Heat shock protein HSP 90-alpha, human, point mutant of the full-length His-HSP90α) not shown
